Data on six molecules can be found in patent US20090110686A1.

B1: anti-CCR5 antibody with heavy chain variable domain SEQ ID NO: 6 and light chain variable domain SEQ ID NO: 9, mutated IgG1 (IgG1v2) constant region (antibody, name in EU numbering, V domains shown)
VH: QVQLQESGPGLVKPSQSLSITCTVSGFPLGAFGVHWVRQSPGKGPEWLGVIWKGGNTDYNAAFKSRLRITKDNSKSQVFFRMNSLQTDDTATYYCAKVNLADAMDYWGQGTTVTVSS
VL: DIQMTQSPASLSASVGETVTITCRASGNAHGYLAWYQQKPGKAPKLLIYNTKTLAEGVPSRFSGSGSGTQFSLKINSAQPEDFGNYYCQHHYDLPRTFGGGTKVEIKR
B2: anti-CCR5 antibody with heavy chain variable domain SEQ ID NO: 7 and light chain variable domain SEQ ID NO: 10, mutated IgG1 (IgG1v2) constant region (antibody, name in EU numbering, V domains shown)
VH: B1 VH with P45L
VL: B1 VL with I48V
B3: anti-CCR5 antibody with heavy chain variable domain SEQ ID NO: 7 and light chain variable domain SEQ ID NO: 9, mutated IgG1 (IgG1v2) constant region (antibody, name in EU numbering, V domains shown)
VH: B1 VH with P45L
VL: B1 VL
B4: anti-CCR5 antibody with heavy chain variable domain SEQ ID NO: 8 and light chain variable domain SEQ ID NO: 10, mutated IgG1 (IgG1v2) constant region (antibody, name in EU numbering, V domains shown)
VH: B1 VH with P45L, T92I
VL: B1 VL with I48V
B5: anti-CCR5 antibody with heavy chain variable domain SEQ ID NO: 6 and light chain variable domain SEQ ID NO: 10, mutated IgG1 (IgG1v2) constant region (antibody, name in EU numbering, V domains shown)
VH: B1 VH
VL: B1 VL with I48V
B6: anti-CCR5 antibody with heavy chain variable domain SEQ ID NO: 8 and light chain variable domain SEQ ID NO: 9, mutated IgG1 (IgG1v2) constant region (antibody, name in EU numbering, V domains shown)
VH: B1 VH with P45L, T92I
VL: B1 VL

Positions count from the first letter of the chain named.

In this assay the target is human CC chemokine receptor CCR5 (human) (UniProt P51681). Kind of assay: cell-based or functional assay.
With B1, the IC50, cell-cell fusion assay (gp160-expressing HeLa cells with CEM.NKR-CCR5-Luc cells, luciferase) amounted to 0.108 µg/mL.
The same measure for B2: 0.152 µg/mL; for B3: 0.046 µg/mL; for B4: 0.076 µg/mL.
The same measure for B5: 0.399 µg/mL; for B6: 0.132 µg/mL.
